# In paper PMC5589848, “BMP-2 induced Dspp transcription is mediated by Dlx3/Osx signaling pathway in odontoblasts”:
# B1: Dlx3I Oligo (dsDNA)
# DNA 1: GAGCTATTTAATTAAGTGAAA
# DNA 2: TTTCACTTAATTAAATAGCTC
# B2: Dlx3II Oligo (dsDNA)
# DNA 1: GTTGAGAAAATTATCAAACTGA
# DNA 2: TCAGTTTGATAATTTTCTCAAC
# Target: Dlx3 (recombinant) (UniProt O60479 1-287)
# Assay: EMSA; anti-Dlx3 supershift; cold competitor 100x; EMSA as described previously (binding buffer not given); 5% native polyacrylamide gel in 1x TBE; 100-fold molar excess of unlabeled competitor
# Settings: protein: recombinant; label: 32P; blunt
# Dlx3 (recombinant), sequence (O60479 whole entry): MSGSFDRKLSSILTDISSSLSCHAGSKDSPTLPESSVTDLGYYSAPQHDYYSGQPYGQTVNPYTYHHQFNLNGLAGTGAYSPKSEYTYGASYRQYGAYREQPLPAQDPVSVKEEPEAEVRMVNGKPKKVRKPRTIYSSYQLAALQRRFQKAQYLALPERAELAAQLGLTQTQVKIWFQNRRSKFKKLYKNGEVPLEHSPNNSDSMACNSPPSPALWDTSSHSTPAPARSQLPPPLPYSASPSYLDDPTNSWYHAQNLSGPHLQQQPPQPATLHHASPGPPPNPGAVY
row,Binder,binding result
1,B1,binds
2,B2,binds
